From patent US20240218062A1 (DEVELOPMENT CENTER FOR BIOTECHNOLOGY, published 2024)

Key:
[1] = target: NTSR1 linear L2-biotin protein (human) (UniProt P30989); assay: ELISA titration on NTSR1, anti-human IgG-HRP, OD450 minus OD650
[2] = target: NTSR1 protein (UniProt P30989 1-418, limits assumed); assay: SPR, Biacore T200, NTSR1 protein on CM5 chip, multi-cycle kinetics, 25 C
Description: To know the binding kinetics differences among individual anti-NTSR1 antibodies, surface plasmon resonance (SPR) measurement with BIACORE™ T200 (CYTIVA® Inc.) was used as previously described (Karlsson & Falt, (1997) J. Immunol Methods 200:121-133). Carboxymethylated dextran biosensor chips (CM5, CYTIVA® Inc.) were activated with N-ethyl-N′-(3-dimethylaminopropyl)-carbodiimide hydrochloride (EDC) and N-hydroxysuccinimide (NHS) according to the supplier's instructions. NTSR1 protein was diluted with 10 mM sodium acetate, pH 4.0, into 5 μg/ml before injection at a flow rate of 10 μL/minute to achieve approximately 1500 response units (RU) of coupled protein followed by the injection of 1 M ethanolamine to block unreacted groups. For kinetics measurements, two-fold serial dilutions of anti-NTSR1 mAb (0.3125 nM to 40 nM) were injected in HBS-EP+BIACORET™ running buffer provided by the manufacturer (CYTIVA® Inc.) at 25° C. at a flow rate of 30 μL/min, and binding responses on the NTSR1 protein were corrected by subtraction of responses on a blank flow cell. Association rates (kₒₙ or Kₐ) and dissociation rates (koff or Kd) were calculated using a simple one-to-one Langmuir binding model with separate fittings of kₒₙ and koff. (CYTIVA® BIACORET™ Insight Evaluation Software).

[3] = target: T1, NTSR1 on FaDu cells (human, UniProt P30989 1-418); assay: flow cytometry on FaDu cells, antibody at 1 ug/mL
T1 construct: whole, on cells; Endogenous NTSR1 on the human FaDu cell line; also called NTSR1 expressing cells, FaDu
Description: (§1) Anti-NTSR1 antibodies were used to detect cells that express NTSR1 on the cell surfaces, for example using FACS. NTSR1 expressing cells, FaDu, were harvested and re-suspended in 5% PBS/FBS buffer. The cells (1×10⁵) were incubated with anti-NTSR1 antibody (1-10 μg/ml) or negative control, at 4° C. for 1 hr, and then stained with goat anti-human IgG FITC conjugate ( 1/1000) at 4° C. for 1 hr. For each assay, two additional controls were prepared; one without primary antibody and the other one with absence of any antibody. All treated samples were analyzed with […]™ (BECTON DICKINSON®) and the results were processed by […]™ software (BECTON DICKINSON®).

[4] = target: T1, NTSR1 on FaDu cells; assay: flow cytometry on FaDu cells, antibody at 10 ug/ml
Description: as §1

[5] = target: NTSR1 linear L2-biotin protein (human) (UniProt P30989); assay: ELISA on coated NTSR1 linear L2-biotin protein, non-linear regression
[6] = target: NTSR1 linear L2-biotin protein (human) (UniProt P30989); assay: ELISA titration, plate coated with NTSR1 linear L2-biotin protein, anti-human IgG-HRP
[7] = target: T1, NTSR1 on FaDu cells; assay: flow cytometry on FaDu cells (internalization assay), 10 µg/mL ADC on ice for 60 min, anti-human IgG PE [left panel (Trimannosyl anti-NTSR1 ADC]
Description: FaDu cells were trypsinized, and then harvested and resuspended in FAC buffer. Controls: secondary Ab anti-human IgG PE (1:200) was added to the FaDu cells. The cells were incubated at 4° C. for time intervals of 0, 0.5, 2, 5 and 24 hours, and then washed by 1 mL of FACS buffer. The supernatant was discarded. Testing groups: FaDu cells were pre-incubated with 10 μg/mL ADCs of trimannosyl and anti-NTSR1 antibodies αNTSR1 (AKT2), αNTSR1 (AKT2 Hu/Hu) and αNTSR1 (AKT2 Hu/Hd) in FACS buffer on ice for 60 min, washed three times with FACS buffer, and then incubated at 37° C. for time intervals of 0, 0.5, 2, 5 and 24 hours.

NTSR1 protein, sequence (P30989 whole entry): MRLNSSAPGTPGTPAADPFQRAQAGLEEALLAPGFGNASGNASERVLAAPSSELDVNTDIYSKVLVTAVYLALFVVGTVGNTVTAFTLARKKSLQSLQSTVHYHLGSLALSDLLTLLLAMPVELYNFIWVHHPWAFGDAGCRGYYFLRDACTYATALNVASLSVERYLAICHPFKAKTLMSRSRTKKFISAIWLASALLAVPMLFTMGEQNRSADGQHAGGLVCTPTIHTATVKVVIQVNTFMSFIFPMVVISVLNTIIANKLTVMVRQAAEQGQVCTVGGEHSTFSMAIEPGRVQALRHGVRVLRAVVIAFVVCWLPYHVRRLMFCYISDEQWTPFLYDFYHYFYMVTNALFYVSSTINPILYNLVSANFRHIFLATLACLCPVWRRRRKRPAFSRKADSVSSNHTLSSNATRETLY
T1 sequence (P30989 whole entry): as above

Binder	EC50 (read off the curve) [1] [nM]	Kd [2] [nM]	koff [2] [s⁻¹]	kon [2] [M⁻¹ s⁻¹]	% Flow binding (1 ug/mL) [3] [%]	% Flow binding (10 ug/ml) [4] [%]	binding result [7]	also measured
humanized antibody AKT2 HuHd (antibody, V domains shown, Full-length humanized antibody; also called αNTSR1 (AKT2 Hu/Hd)) VH: QVQLVQSGAEVKKPGASVKVSCKASGYAFTSSWIHWVRQAPGQGLEWMGQIRPNSGNTYYNEKFKVRVTMTRDTSTSTVYMELSSLRSEDTAVYYCARYHYGFDYWGQGTLVTVSS VL: DIQMTQSPSSLSASVGDRVTITCRSSQSIVHSNGNTYLEWYQQKPGKAPKLLIYKVSNRFSGVPSRFSGSGSGTDFTLTISSLQPEDFATYYCFQGAHLPWTFGQGTKVEIK	0.06	1.43	0.000657	461000	–	–	–	–
humanized antibody 7C3 HuHd (antibody, V domains shown, Full-length antibody from the human Fc vectors) VH: QVQLVQSGAEVKKPGASVKVSCKASGYTFTSSWIHWVRQAPGQGLEWMGQIRPNSGNTYYNEKFKVRVTMTRDTSTSTVYMELSSLRSEDTAVYYCARYYYGFDYWGQGTLVTVSS VL: DIQMTQSPSSLSASVGDRVTITCRSSQSIVHSNGNTYLEWYQQKPGKAPKLLIYKVSNRFSGVPSRFSGSGSGTDFTLTISSLQPEDFATYYCFQGSHLPWTFGQGTKVEIK	–	–	–	–	73	99	–	–
humanized antibody AKT2 HuHu (antibody, V domains shown, Full-length humanized antibody; also called αNTSR1 (AKT2 Hu/Hu)) VH: QVQLVQSGAEVKKPGASVKVSCKASGYAFTSSWIHWVRQAPGQGLEWMGQIRPNSGNTYYNEKFKVRVTMTRDTSTSTVYMELSSLRSEDTAVYYCARYHYGFDYWGQGTLVTVSS VL: DIVMTQTPLSLSVTPGQPASISCRSSQSIVHSNGNTYLEWYLQKPGQSPQLLIYKVSNRFSGVPDRFSGSGSGTDFTLKISRVEAEDVGVYYCFQGAHLPWTFGQGTKVEIK	0.06	1.03	0.000808	788000	–	–	–	–
humanized 7C3 IMGT (7C3 HuHu) (antibody, V domains shown, Full-length antibody with human IgG1 / kappa constant regions (plasmids pTCAEDH 7C3 HUVH IgG1 and pTCAEDL 7C3 HUVL Kappa)) VH: QVQLVQSGAEVKKPGASVKVSCKASGYTFTSSWIHWVRQAPGQGLEWMGQIRPNSGNTYYNEKFKVRVTMTRDTSTSTVYMELSSLRSEDTAVYYCARYYYGFDYWGQGTLVTVSS VL: DIVMTQTPLSLSVTPGQPASISCRSSQSIVHSNGNTYLEWYLQKPGQSPQLLIYKVSNRFSGVPDRFSGSGSGTDFTLKISRVEAEDVGVYYCFQGSHLPWTFGQGTKVEIK	–	–	–	–	64	98	–	Kd [5]: 0.294 nM; EC50 (read off the curve) [6]: 0.03 nM
mouse-human chimera antibody AKT2 (antibody, V domains shown, Mouse variable domains on human constant regions; also called chimera AKT2 mAb; αNTSR1 (AKT2)) VH: QVQLQQPGSVLVRPGASVKLSCKASGYAFTSSWIHWAKQRPGQGLEWIGQIRPNSGNTYYNEKFKVKATLTVDTSSSTAYVDLSSLTSEDSAVYYCARYHYGFDYWGQGTLVTVSS VL: DVLMTQTPLSLPVSLGDQASISCRSSQSIVHSNGNTYLEWYLQKPGQSPKLLIYKVSNRFSGVPDRFSGSGSGTDFTLKISRVEAEDLGVYYCFQGAHLPWTFGGGTKLEIK	0.06	1.61	0.000656	407000	–	–	–	–
mouse-human chimera antibody 7C3 MM (antibody, V domains shown, Mouse 7C3 variable domains sub-cloned into the human Fc chimera expression vectors pTCAEDH and pTCAEDL; The humanized plasmids are named IgG1 and Kappa; also called m7C3; mAb 7C3 MM) VH: QVQLQQPGSVLVRPGDSVMLSCKASGYTFTSSWIHWAKQRPGQGPEWIGQIRPNSGNTYYNEKFKVKATLTVDTSSSTAYVDLSSLTSEDSAVYYCARYYYGFDYWGQGTTVTVSS VL: DVLMTQTPLSLPVSLGDQASISCRSSQSIVHSNGNTYLEWYLQKPGQSPKLLIYKVSNRFSGVPDRFSGSGSGTDFTLKISRVEAEDLGVYYCFQGSHLPWTFGGGTKLEIK	–	–	–	–	31	91	–	Kd [5]: 0.676 nM; EC50 (read off the curve) [6]: 0.07 nM
αNTSR1 (AKT2) 4 seco-DUBA (antibody, V domains shown, seco-DUBA payload conjugated (trimannosyl ADC); site of conjugation not given, Antibody-drug conjugate of the mouse-human chimera antibody AKT2 with seco-DUBA; also called trimannosyl anti-NTSR1 ADC of AKT2) VH: QVQLQQPGSVLVRPGASVKLSCKASGYAFTSSWIHWAKQRPGQGLEWIGQIRPNSGNTYYNEKFKVKATLTVDTSSSTAYVDLSSLTSEDSAVYYCARYHYGFDYWGQGTLVTVSS VL: DVLMTQTPLSLPVSLGDQASISCRSSQSIVHSNGNTYLEWYLQKPGQSPKLLIYKVSNRFSGVPDRFSGSGSGTDFTLKISRVEAEDLGVYYCFQGAHLPWTFGGGTKLEIK	–	–	–	–	–	–	binds	–
αNTSR1 (AKT2 Hu/Hu) 4 seco-DUBA (antibody, V domains shown, seco-DUBA payload conjugated (trimannosyl ADC); site of conjugation not given, Antibody-drug conjugate of the humanized antibody AKT2 HuHu with seco-DUBA; also called trimannosyl anti-NTSR1 ADC of AKT2 HuHu) VH: QVQLVQSGAEVKKPGASVKVSCKASGYAFTSSWIHWVRQAPGQGLEWMGQIRPNSGNTYYNEKFKVRVTMTRDTSTSTVYMELSSLRSEDTAVYYCARYHYGFDYWGQGTLVTVSS VL: DIVMTQTPLSLSVTPGQPASISCRSSQSIVHSNGNTYLEWYLQKPGQSPQLLIYKVSNRFSGVPDRFSGSGSGTDFTLKISRVEAEDVGVYYCFQGAHLPWTFGQGTKVEIK	–	–	–	–	–	–	binds	–
αNTSR1 (AKT2 Hu/Hd) 4 seco-DUBA (antibody, V domains shown, seco-DUBA payload conjugated (trimannosyl ADC); site of conjugation not given, Antibody-drug conjugate of the humanized antibody AKT2 HuHd with seco-DUBA; also called trimannosyl anti-NTSR1 ADC of AKT2 HuHd) VH: QVQLVQSGAEVKKPGASVKVSCKASGYAFTSSWIHWVRQAPGQGLEWMGQIRPNSGNTYYNEKFKVRVTMTRDTSTSTVYMELSSLRSEDTAVYYCARYHYGFDYWGQGTLVTVSS VL: DIQMTQSPSSLSASVGDRVTITCRSSQSIVHSNGNTYLEWYQQKPGKAPKLLIYKVSNRFSGVPSRFSGSGSGTDFTLTISSLQPEDFATYYCFQGAHLPWTFGQGTKVEIK	–	–	–	–	–	–	binds	–
